Square brackets hold non-standard residues; d marks the D form. Ends that are not written are not given here. pY = N[C@@H](Cc1ccc(OP(=O)(O)O)cc1)C(=O)O
How the values were obtained:
[1] = target: Aminopeptidase A (APA, EC 3.4.11.7) on cells (UniProt Q07075); test: phage binding to SK-RC-49/APA cells in suspension, phage rescued and counted (not shown)
[2] = target: GST-β5cyto (GST fusion protein of the integrin β5 cytoplasmic domain) (UniProt P18084); test: phage colonies recovered from β5-GST-coated wells divided by those from BSA wells
Sequence of GST-β5cyto (GST fusion protein of the integrin β5 cytoplasmic domain) (P18084 other isoform, or with tags, fused parts or gaps): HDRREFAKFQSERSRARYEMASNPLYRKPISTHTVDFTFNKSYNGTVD

[3] = target: GST-β5cyto (GST fusion protein of the integrin β5 cytoplasmic domain) (UniProt P18084); test: phage colonies recovered from β5-GST-coated wells divided by those from GST wells
[4] = target: T1, GST-β3cyto (GST fusion protein of the integrin β3 cytoplasmic domain) (UniProt O54890); test: phage colonies recovered from β3-GST-coated wells divided by those from BSA wells
T1 sequence: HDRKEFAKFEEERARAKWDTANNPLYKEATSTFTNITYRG

[5] = target: T1, GST-β3cyto (GST fusion protein of the integrin β3 cytoplasmic domain); test: phage colonies recovered from β3-GST-coated wells divided by those from GST wells
[6] = target: Aminopeptidase A (APA, EC 3.4.11.7) on cells (UniProt Q07075 1-957, limits assumed); test: cell-based or functional assay
Sequence of Aminopeptidase A (APA, EC 3.4.11.7) on cells (UniProt Q07075 1-957, limits assumed) (Q07075 whole entry, the tested form may be a part): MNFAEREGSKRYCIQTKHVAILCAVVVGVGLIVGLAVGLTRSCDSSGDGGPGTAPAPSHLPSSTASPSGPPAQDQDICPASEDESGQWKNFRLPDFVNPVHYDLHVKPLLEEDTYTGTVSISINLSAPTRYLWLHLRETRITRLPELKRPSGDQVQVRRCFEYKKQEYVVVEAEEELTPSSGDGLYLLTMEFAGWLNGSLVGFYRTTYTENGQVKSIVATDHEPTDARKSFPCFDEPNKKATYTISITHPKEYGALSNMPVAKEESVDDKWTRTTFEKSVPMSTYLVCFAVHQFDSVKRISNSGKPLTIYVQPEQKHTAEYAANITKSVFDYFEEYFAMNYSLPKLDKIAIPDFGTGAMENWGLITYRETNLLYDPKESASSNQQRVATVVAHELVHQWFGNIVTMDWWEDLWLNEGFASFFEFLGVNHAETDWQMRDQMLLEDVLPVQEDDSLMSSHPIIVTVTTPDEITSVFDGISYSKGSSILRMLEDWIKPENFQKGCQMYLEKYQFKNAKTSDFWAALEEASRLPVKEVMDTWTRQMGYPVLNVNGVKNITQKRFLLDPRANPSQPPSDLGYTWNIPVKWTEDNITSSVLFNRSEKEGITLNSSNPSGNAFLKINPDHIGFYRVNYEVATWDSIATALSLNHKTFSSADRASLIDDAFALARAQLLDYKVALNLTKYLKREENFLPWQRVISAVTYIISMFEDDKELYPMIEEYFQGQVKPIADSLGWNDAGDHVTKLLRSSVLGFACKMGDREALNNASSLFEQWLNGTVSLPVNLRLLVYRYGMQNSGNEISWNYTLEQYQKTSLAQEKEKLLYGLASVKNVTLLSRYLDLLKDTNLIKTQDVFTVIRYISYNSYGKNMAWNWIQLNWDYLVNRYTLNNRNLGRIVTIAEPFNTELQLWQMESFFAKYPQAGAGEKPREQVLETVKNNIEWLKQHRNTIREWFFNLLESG

[7] = target: GST-β5cyto (GST fusion protein of the integrin β5 cytoplasmic domain) (UniProt P18084); test: β5 colonies divided by BSA colonies after panning
[8] = target: GST-β5cyto (GST fusion protein of the integrin β5 cytoplasmic domain) (UniProt P18084); test: β5 colonies divided by GST colonies after panning
[9] = target: GST-β5cyto (GST fusion protein of the integrin β5 cytoplasmic domain) (UniProt P18084); test: colonies of Fyn-phosphorylated phage divided by those of unphosphorylated phage bound to the β5 cytoplasmic domain
[10] = target: GST-β5cyto (GST fusion protein of the integrin β5 cytoplasmic domain) (UniProt P18084); test: competition ELISA on GST-β5-coated plates, in the absence of calcium
[11] = target: GST-β5cyto (GST fusion protein of the integrin β5 cytoplasmic domain) (UniProt P18084); test: competition ELISA on GST-β5-coated plates, in the presence of calcium
[12] = target: T1, GST-β3cyto (GST fusion protein of the integrin β3 cytoplasmic domain); test: β3 colonies divided by BSA colonies after panning
[13] = target: T1, GST-β3cyto (GST fusion protein of the integrin β3 cytoplasmic domain); test: β3 colonies divided by GST colonies after panning
[14] = target: T1, GST-β3cyto (GST fusion protein of the integrin β3 cytoplasmic domain); test: colonies of Fyn-phosphorylated phage divided by those of unphosphorylated phage bound to the β3 cytoplasmic domain

Sequence of Aminopeptidase A (APA, EC 3.4.11.7) on cells (UniProt Q07075) (Q07075 whole entry, the tested form may be a part): as above

B1: phage displaying … (SEQ ID NO:126) (peptide)
peptide: CLGQCASICVNDC
For B1, the fold enrichment relative to SK-RC-49 parental cells [1] was 6 fold.

B2: phage displaying … (SEQ ID NO:125) (peptide)
peptide: CYNLCIRECESICGADGACWTWCADGCSRSC
B2 gave a fold enrichment relative to SK-RC-49 parental cells [1] of 6 fold.

B3: phage displaying … (SEQ ID NO:106) (peptide)
peptide: CEPYWDGWFC
Binder B3 has a β5/BSA Ratio [2] of 400 and a β5/GST Ratio [3] of 3.1.

B4: phage displaying … (SEQ ID NO:109) (peptide)
peptide: CWDQNYLDDC
Work on B4 yielded a β5/BSA Ratio [2] of 100 and a β5/GST Ratio [3] of 1.5.

B5: phage displaying … (SEQ ID NO:127) (peptide)
peptide: CPKVCPRECESNC
In the case of B5, the fold enrichment relative to SK-RC-49 parental cells [1] is reported as 6 fold.

B6: phage displaying … (SEQ ID NO:96) (peptide)
peptide: GLDTYRGSP
For B6, the β3/BSA Ratio [4] was 48 and the β3/GST Ratio [5] was 4.1.

B7: CPRECESIC (SEQ ID NO:123) soluble peptide (peptide)
peptide: CPRECESIC
modifications: disulfide (positions not given here); also: mixture of disulfide isomers and dimers
In the case of B7, the “APA enzyme activity on SK-RC-49/APA cells (α-glutamyl-p-nitroanilide, colorimetric), IC50” value [6] is reported as 800 µM.

B8: phage displaying … (SEQ ID NO:94) (peptide)
peptide: CARLEVLLPC
With B8 the β3/BSA Ratio [4] was 18.7 and the β3/GST Ratio [5] was 2.8.

B9: phage displaying … (SEQ ID NO:99) (peptide)
peptide: KVSWYLDNG
With B9 the β3/BSA Ratio [4] was 20 and the β3/GST Ratio [5] was 2.1.

B10: phage displaying … (SEQ ID NO:104) (peptide)
peptide: CLRQSYSYNC
For B10, the β3/BSA Ratio [4] was 3.2 and the β3/GST Ratio [5] was 2.4.

B11: phage displaying … (SEQ ID NO:112) (peptide)
peptide: VVISYSMPD
Work on B11 yielded a β5/BSA Ratio [2] of 28 and a β5/GST Ratio [3] of 3.8.

B12: phage displaying … (SEQ ID NO:113), selected on β5 (peptide)
peptide: SDWYYPWSW
Work on B12 yielded a β5/BSA Ratio [2] of 304 and a β5/GST Ratio [3] of 2.4.

B13: Fyn-phosphorylated phage displaying … (SEQ ID NO:121) (peptide)
peptide: TLRK[pY]FHSS
modifications: also: tyrosine phosphorylated in vitro with Fyn kinase
With B13 the β3 or β5/BSA [7] was 7.3, the β3 or β5/GST [8] was 5.6 and the Phos/Unphos [9] was 1.8.

B14: phage displaying … (SEQ ID NO:110) (peptide)
peptide: DEEGYYMMR
B14 was tested, and the β5/BSA Ratio [2] was 29 and the β5/GST Ratio [3] was 11.5.

B15: VISY peptide (…, SEQ ID NO:112) (peptide)
peptide: VVISYSMPD
Binder B15 has a % inhibition of Annexin V binding to GST-β5 [10] of 45% and a % inhibition of Annexin V binding to GST-β5 [11] of 67%.

B16: phage displaying … (SEQ ID NO:97) (peptide)
peptide: SDNRYIGSW
In the case of B16, the β3/BSA Ratio [4] is reported as 32 and the β3/GST Ratio [5] is reported as 3.3.

B17: phage displaying CFQNRC (SEQ ID NO:102) (peptide)
peptide: CFQNRC
B17 showed a β3/BSA Ratio [4] of 16 and a β3/GST Ratio [5] of 3.1.

B18: phage displaying … (SEQ ID NO:105) (peptide)
peptide: CYIWPDSGLC
With B18 the β5/BSA Ratio [2] was 193 and the β5/GST Ratio [3] was 5.2.

B19: phage displaying … (SEQ ID NO:111) (peptide)
peptide: KQFSYRYLL
For B19, the β5/BSA Ratio [2] was 8 and the β5/GST Ratio [3] was 4.5.

B20: phage displaying … (SEQ ID NO:98) (peptide)
peptide: YEWWYWSWA
B20 gave a β3/BSA Ratio [4] of 28.1 and a β3/GST Ratio [5] of 2.2.

B21: phage displaying … (SEQ ID NO:95) (peptide)
peptide: YDWWYPWSW
With B21 the β3/BSA Ratio [4] was 163 and the β3/GST Ratio [5] was 5.6.

B22: phage displaying … (SEQ ID NO:93) (peptide)
peptide: CEQRQTQEGC
For B22, the β3/BSA Ratio [4] was 14 and the β3/GST Ratio [5] was 4.3.

B23: phage displaying CNLSSEQC (SEQ ID NO:103) (peptide)
peptide: CNLSSEQC
In the case of B23, the β3/BSA Ratio [4] is reported as 62 and the β3/GST Ratio [5] is reported as 2.7.

B24: Fyn-phosphorylated phage displaying … (SEQ ID NO:116) (peptide)
peptide: RAIL[pY]RLAN
modifications: also: tyrosine phosphorylated in vitro with Fyn kinase
With B24 the β3 or β5/BSA [12] was 20, the β3 or β5/GST [13] was 1.3 and the Phos/Unphos [14] was 2.8.

B25: phage displaying … (SEQ ID NO:100), selected on β3 (peptide)
peptide: SDWYYPWSW
Binder B25 has a β3/BSA Ratio [4] of 157 and a β3/GST Ratio [5] of 2.1.
